We go through 9 substances from patent publication US20200405868A1, “GEL-FORMING POLYPEPTIDES” (priority 2018, published 2020).

A short description of the data set: Compound gel-forming ability in water (visual inspection, tube tapping assay, tilted tube assay).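 As to all read-outs here: peptides mixed with de-ionized water at about 22-25 °C, judged after 20 min by eye plus tube tapping (10 taps, moves counted) and 90° tilt mobility.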 As to conditions: for Physical property at 11% w/w: 11% w/w in aqueous solution, room temperature; for gel formation in aqueous solution, 6% / gel formation in aqueous solution, 11% / gel formation in aqueous solution, 20%: Table 3; for gel formation in aqueous solution, 6% / propensity to form gels, wild-type counterparts, 6%: 6% w/w; for gel formation in aqueous solution, 11% / propensity to form gels, wild-type counterparts, 11%: 11% w/w; for propensity to form gels, wild-type counterparts, 11% / propensity to form gels, wild-type counterparts, 6% / propensity to form gels, wild-type counterparts, 20%: Table 5; for gel formation in aqueous solution, 20% / propensity to form gels, wild-type counterparts, 20%: 20% w/w; for gel formation at 11% w/w: 11% w/w in water; for gel formation at 20% w/w: 20% w/w in water. Format: physicochemical.

Entries after “also recorded” stand apart in the source; their conditions may differ. Where no end group is shown, it is not given here. The star is where a group is joined. Palmitoyl = CCCCCCCCCCCCCCCC(=O)*

Consider “Pal-VQKLPHSY-NH2 (Palmitoyl-VQKLPHSY-NH2; SMILES CCCCCCCCCCCCCCCC(=O)N[C@H](C(=O)N[C@@H](CCC(N)=O)C(=O)N[C@@H](CCCCN)C(=O)N[C@@H](CC(C)C)C(=O)N1CCC[C@H]1C(=O)N[C@@H](Cc1c[nH]cn1)C(=O)N[C@@H](CO)C(=O)N[C@@H](Cc1ccc(O)cc1)C(N)=O)C(C)C) [SEQ ID NO:117]”, for which the “Physical property at 11% w/w” value (Table 2) is listed as “SS (SS for semisolid gel)”.

As to “Pal-VQKLVDPSSPHSY-NH2 (Palmitoyl-VQKLVDPSSPHSY-NH2; SMILES CCCCCCCCCCCCCCCC(=O)N[C@H](C(=O)N[C@@H](CCC(N)=O)C(=O)N[C@@H](CCCCN)C(=O)N[C@@H](CC(C)C)C(=O)N[C@H](C(=O)N[C@@H](CC(=O)O)C(=O)N1CCC[C@H]1C(=O)N[C@@H](CO)C(=O)N[C@@H](CO)C(=O)N1CCC[C@H]1C(=O)N[C@@H](Cc1c[nH]cn1)C(=O)N[C@@H](CO)C(=O)N[C@@H](Cc1ccc(O)cc1)C(N)=O)C(C)C)C(C)C) [SEQ ID NO:112]”, the “Physical property at 11% w/w” value (Table 2) was “SS (SS for semisolid gel)”.

Take “QQRFEWEFEQQ-miniPEG-RPKPQQFFGLM-NH2 [SEQ ID NO:285]”: the “gel formation in aqueous solution, 6%” value is “AS/IS (AS/IS for aqueous solution or insoluble)” and the “gel formation in aqueous solution, 11%” value is recorded as “AS/IS (AS/IS for aqueous solution or insoluble)”.

“RGD-NH2 [SEQ ID NO:44, reference compound]”: the “gel formation in aqueous solution, 11%” value is recorded as “AS/IS (AS/IS for aqueous solution or insoluble)” and the “propensity to form gels, wild-type counterparts, 11%” value (“propensity to form gels … 11%” for short) was “AS/IS”. For the same substance, under “Table 1”, the “Physical property at 11% w/w” value is reported as “AS/IS”.

In the case of “RPKPQQFF-Sar-L-Met-(O2)-NH2 [SEQ ID NO:69, reference compound]”, the “gel formation in aqueous solution, 6%” value is recorded as “AS/IS (AS/IS for aqueous solution or insoluble)”; the “gel formation in aqueous solution, 11%” value is on record as “AS/IS (AS/IS for aqueous solution or insoluble)”; the “gel formation in aqueous solution, 20%” value is “AS/IS (AS/IS for aqueous solution or insoluble)”; the “propensity to form gels, wild-type counterparts, 6%” value is on record as “AS/IS”. Further, the “propensity to form gels … 11%” value is reported as “AS/IS” and the “propensity to form gels, wild-type counterparts, 20%” value (“propensity to form gels … 20%” below) is “AS/IS”.

In the case of “RPKPQQFFGLM-NH2 [SEQ ID NO:23, reference compound]”, the “gel formation at 11% w/w” value was “semisolid gel”; the “gel formation in aqueous solution, 11%” value is reported as “AS/IS (AS/IS for aqueous solution or insoluble)”; the “propensity to form gels … 11%” value is given as “AS/IS”. Besides, the “Physical property at 11% w/w” value (Table 1) was “AS/IS”.

Regarding “SDAAVDTSSEITTKDLKEKKEVVEEAEN-NH2 (ends and bridges not checked) [SEQ ID NO:13, reference compound]”, the “gel formation at 11% w/w” value is “form self-assembling gels; also recorded: liquid gel”; the “gel formation at 20% w/w” value is “semisolid gel”; the “gel formation in aqueous solution, 20%” value is reported as “SS (SS for semisolid gel)”; the “propensity to form gels … 20%” value was “SS (An ability to form semisolid gel is represented by an SS)”.

With “SLRRSSCFGGRMDRIGAQSGLGCNSFRY-NH2 [SEQ ID NO:41, reference compound]”, the “gel formation at 11% w/w” value is reported as “does not form gel”; the “gel formation at 20% w/w” value is given as “does not form gel”; the “gel formation in aqueous solution, 11%” value is on record as “AS/IS (AS/IS for aqueous solution or insoluble)”; the “gel formation in aqueous solution, 20%” value is listed as “AS/IS (AS/IS for aqueous solution or insoluble)”. For the same substance, the “propensity to form gels … 11%” value is given as “AS/IS” and the “propensity to form gels … 20%” value was “AS/IS”. In addition, the “Physical property at 11% w/w” value (Table 1) is recorded as “AS/IS”.

Turning to “SVSEIQLMHNLGKHLNSMERVEWLRKKLQDVHNF [SEQ ID NO:25, reference compound]”, the “gel formation at 11% w/w” value is listed as “does not form gel”; the “gel formation in aqueous solution, 6%” value is on record as “AS/IS (AS/IS for aqueous solution or insoluble)”; the “gel formation in aqueous solution, 11%” value was “AS/IS (AS/IS for aqueous solution or insoluble)”; the “propensity to form gels, wild-type counterparts, 6%” value is “AS/IS”. The “propensity to form gels … 11%” value is recorded as “AS/IS”. Moreover, the “gel formation at 6% w/w” value (6% w/w in water) is reported as “does not form gel”. Besides, where the note is “Table 1”, the “Physical property at 11% w/w” value is “AS/IS”.
